B1: Emerin (Homo sapiens), P50402 (parent)
chain: MDNYADLSDTELTTLLRRYNIPHGPVVGSTRRLYEKKIFEYETQRRRLSPPSSSAASSYSFSDLNSTRGDADMYDLPKKEDALLYQSKGYNDDYYEESYFTTRTYGEPESAGPSRAVRQSVTSFPDADAFHHQVHDDDLLSSSEEECKDRERPMYGRDSAYQSITHYRPVSASRSSLDLSYYPTSSSTSFMSSSSSSSSWLTRRAIRPENRAPGAGLGQDRQVPLWGQLLLFLVFVIVLFFIYHFMQAEEGNPF

Variants of: B1
Details: with bclf1_human BCLAF1, Q9NYF8
Chain of bclf1_human BCLAF1, Q9NYF8 (Q9NYF8 whole entry): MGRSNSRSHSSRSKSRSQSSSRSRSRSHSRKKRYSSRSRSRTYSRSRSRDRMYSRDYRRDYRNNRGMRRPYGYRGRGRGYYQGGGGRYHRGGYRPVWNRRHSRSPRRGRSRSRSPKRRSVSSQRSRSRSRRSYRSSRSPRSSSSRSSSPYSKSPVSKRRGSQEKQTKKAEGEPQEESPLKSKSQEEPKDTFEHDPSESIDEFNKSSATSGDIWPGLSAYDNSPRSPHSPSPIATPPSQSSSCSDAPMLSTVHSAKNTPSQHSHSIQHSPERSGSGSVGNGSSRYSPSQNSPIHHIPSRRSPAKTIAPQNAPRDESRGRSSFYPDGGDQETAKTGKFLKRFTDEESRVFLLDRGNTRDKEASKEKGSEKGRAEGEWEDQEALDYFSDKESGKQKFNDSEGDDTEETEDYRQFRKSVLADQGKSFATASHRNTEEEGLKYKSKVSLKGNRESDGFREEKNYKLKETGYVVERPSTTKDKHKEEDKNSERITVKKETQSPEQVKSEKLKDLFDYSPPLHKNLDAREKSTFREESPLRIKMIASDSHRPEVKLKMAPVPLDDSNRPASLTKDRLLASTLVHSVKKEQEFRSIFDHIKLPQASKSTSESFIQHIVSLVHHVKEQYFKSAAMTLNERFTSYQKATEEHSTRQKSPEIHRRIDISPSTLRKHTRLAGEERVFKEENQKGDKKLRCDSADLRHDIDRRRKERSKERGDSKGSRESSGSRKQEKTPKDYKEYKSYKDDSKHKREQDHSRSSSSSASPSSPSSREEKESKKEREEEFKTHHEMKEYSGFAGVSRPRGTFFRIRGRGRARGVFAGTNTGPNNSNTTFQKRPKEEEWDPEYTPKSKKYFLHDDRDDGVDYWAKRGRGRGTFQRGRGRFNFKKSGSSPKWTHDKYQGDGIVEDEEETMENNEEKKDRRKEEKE

Effect of a mutation on the interaction, decreasing interaction:
MDNYADLSDTELTTLLRRYNIPHGPVVGSTRRLYEKKIFEYETQRRRLSPPSSSAASSYSFSDLNSTRGDADMYDLPKKEDALLYQSKGYNDDYYEESYFTTRTYGEPESAGPSRAVRQSVTSFPDADAFHHQVHDDDLLSSSEEECKDRERPMYGRDSAYQSITHYRPVSASRSSLDLSYYPTSSSTSFMSSSSSAASWLTRRAIRPENRAPGAGLGQDRQVPLWGQLLLFLVFVIVLFFIYHFMQAEEGNPF [S197A;S198A]
MDNYADLSDTELTTLLRRYNIPHGPVVGSTRRLYEKKIFEYETQAAALSPPSSSAASSYSFSDLNSTRGDADMYDLPKKEDALLYQSKGYNDDYYEESYFTTRTYGEPESAGPSRAVRQSVTSFPDADAFHHQVHDDDLLSSSEEECKDRERPMYGRDSAYQSITHYRPVSASRSSLDLSYYPTSSSTSFMSSSSSSSSWLTRRAIRPENRAPGAGLGQDRQVPLWGQLLLFLVFVIVLFFIYHFMQAEEGNPF [R45A;R46A;R47A]
MDNYADLSDTELTTLLRRYNIPHGPVVGSTRRLYEKKIFEYETQRRRLSPPSSSAASSYSFSDLNSTRGDADMYDLPKKEDALLYQSKGYNDDYYEESYFTTRTYGEPESAGPSRAVRQSVTSFPDADAFHHQVHDDDLLSSSEEECKDRERPMYGRDSAYQSITHYRPVSASRSSLDLSYYPTSSSTSFMSSSSSSSSWLTRRAAAPANRAPGAGLGQDRQVPLWGQLLLFLVFVIVLFFIYHFMQAEEGNPF [I206A;R207A;E209A]
MDNYADLSDTELTTLLRRYNIPHGPVVGSTRRLYEKKIFEYETQRRRLSPPSSFAASSYSFSDLNSTRGDADMYDLPKKEDALLYQSKGYNDDYYEESYFTTRTYGEPESAGPSRAVRQSVTSFPDADAFHHQVHDDDLLSSSEEECKDRERPMYGRDSAYQSITHYRPVSASRSSLDLSYYPTSSSTSFMSSSSSSSSWLTRRAIRPENRAPGAGLGQDRQVPLWGQLLLFLVFVIVLFFIYHFMQAEEGNPF [S54F]
MDNYADLSDTELTTLLRRYNIPHGPVVGSTRRLYEKKIFEYETQRRRLSPPSSSAASSYSFSDLNSTRGDADMYDAPAKADAALYQSKGYNDDYYEESYFTTRTYGEPESAGPSRAVRQSVTSFPDADAFHHQVHDDDLLSSSEEECKDRERPMYGRDSAYQSITHYRPVSASRSSLDLSYYPTSSSTSFMSSSSSSSSWLTRRAIRPENRAPGAGLGQDRQVPLWGQLLLFLVFVIVLFFIYHFMQAEEGNPF [L76A;K78A;E80A;L83A]
MDNYADLSDTELTTLLRRYNIPHGPVVGSTRRLYEKKIFEYETQRRRLSPPSSSAASSYSFSDLNSTRGDADMYDLPKKEDALLYQSKGYNDDYYEESYFTTRTYGEPESAGPSRAVRQSVTSFPDADAFHHQVHDDDLLSSSEEECKDRERPMYGRDSAYQSITHYRPVSASRSSLDLSYYPTSSSTSFMSSSSSSSSWLTRRAIRPENRAPAAGAGQDRQVPLWGQLLLFLVFVIVLFFIYHFMQAEEGNPF [G214A;L217A]
MDNYADLSDTELTTLLRRYNIPHGPVVGSTRRLYEKKIFEYETQRRRLSPPSSSAASSYSFSDLNSTRGDADMYDLPKKEDALLYQSKGYNDDYYEESYFTTRTYGEPESAGPSRAVRQSVTSFPDADAFHHQVHDDDLLSSSEEECKDRERPMYGRDSAYQSITHYRPVSASRAALDLSYYPTSSSTSFMSSSSSSSSWLTRRAIRPENRAPGAGLGQDRQVPLWGQLLLFLVFVIVLFFIYHFMQAEEGNPF [S175A;S176A]
MDNYADLSDTELTTLLRRYNIPHGPVVGSTRRLYEKKIFEYETQRRRLSPPSSSAASSYSFSDLNSTRGDADMYDLPKKEDALLYQSKGYNDDYYEESYFTTRTYGEPESAGPSRAVRQSVTSFPDADAFHHQVHDDDLLSSSEEECKDRERPMYGRDSAYQSITHYRPVSASRSSLDLSYYPTSSSTSFMSSSSSSSSWLTRRAIAAENRAPGAGLGQDRQVPLWGQLLLFLVFVIVLFFIYHFMQAEEGNPF [R207A;P208A]
MDNYADLSDTELTTLLRRYNIPHGPVVGSTRRLYEKKIFEYETQRRRLSPPSSSAASSYSFSDLNSTRGAAAMADLPKKEDALLYQSKGYNDDYYEESYFTTRTYGEPESAGPSRAVRQSVTSFPDADAFHHQVHDDDLLSSSEEECKDRERPMYGRDSAYQSITHYRPVSASRSSLDLSYYPTSSSTSFMSSSSSSSSWLTRRAIRPENRAPGAGLGQDRQVPLWGQLLLFLVFVIVLFFIYHFMQAEEGNPF [D70A;D72A;Y74A]
MDNYADLSDTELTTLLRRYNIPHGPVVGSTRRLYEKKIFEYETQRRRLSPPSSSAASSYSFSDLNSTRGDADMYDLPKKEDALLYQSKGYNDDYYEESYFTTRTYGEPESAGPSRAVRQSVTSFPDADAFHHQVHDDDLLSSSEEECKDRERPMYGRDSAYQSITHYRPVSASRSSLDLSYYPTSSSTSFMASAAASSSWLTRRAIRPENRAPGAGLGQDRQVPLWGQLLLFLVFVIVLFFIYHFMQAEEGNPF [S192A;S194A;S195A;S196A]

— IntAct's records for PubMed 15009215
